# Source: the DeepSol protein solubility set
# Assay: soluble on expression in E. coli; label from the status in PepcDB or PDB records
row,Sequence,soluble on expression in E. coli
1,MVIAYVDANLQTNRQTIYFDHDLNRNKYNTIQLKKLTMTQDSDSEYEIERIIDHVSFLEAYESFYGQNVKRFAAIFSEERFKRTKKPQLISNYFFLVKWLGYGNKEMTWEPESNIPDSVYLYEYKKLNNMVMNRMNLKVSLTFTSRRKGYTPPVILEELQERKPKPQFLNMSNMAITLNDNLNNGKFGIVPVPKYKKKFGQNVNYLKFGNEVYKMKNVSFKDSTNNDIDNRVQQHHHEDRSFLQSMIKHNNIVRMRDLFVSYNKLDETVNITSIYDWCHQNLRQQLNNEKVSWKKVCRDILNALSFIHPYGIHQGVSLDHIYYHKGGTYKLSHFNNFFFGKRIPAEKVKSDRVELAPRLYNLKFKLGRNSDIYALAIVLLQCHNKKFSFRVNPSSVMEIEEDIAKGMSAFENKDDRHFLKSLLRARLHVYHGSGHYRFTSSSLLHHPVLQEPTARSVECFYFHSMLASPMKEIIHYHANDKISDVLQRFISLYHTSQEAEDKKYIMMFTKDTSSCDSVVLLNSLENFERVVDIDLTIMKNTLLIAPIILPSPENENCQKFLIIYEQELGGCPIVIETPEVNAAKFAKQLKEYSVSHEYRNRRLGLFPKLPGGDQQENGGLPEFSHHVWQMQLESNDDTVIKNRFDIASEIEMPLSGEMLEWDDVAGIANYGEILRNNSDNTTSRRKRETCSSDELDEAHAKREKVD,not soluble
2,MHTSLMSYNQNMIPSGDDRPVFPTIDLFANTSLEELQQSLCAAVANYRDFLTRKILPFQQSWVVRVLSESGLDEETLRAIKSCVFTPCCSIPGAVQPDRICQHDSPIYIYTSLNLLSQYVEGKTLLRCYRKFVLASSLPPYRTDIPAEELKNVLNSILPGAYSMPHAVSCFVAILPSKKFTISMSKITTRGGAEEHFVVFSREENDIIPYDIVAVGKTLFSQSDEEFGLPNLSFDELQNLISTLEHHHHHH,not soluble
3,MGSDKIHHHHHHMTKARKVLVSALCFTALIGEAAVGREQVVLKPSGQWNINYADESCQLARTFGVGDQKTLVQFERFGPENGFALMIVSPLLKFQENFRAVPNRMLHPTKRQYLDTVFQFLPGGEPYKQPGIPAMDAASRQPTLMAFLSLEGPRKDAAPTATGTASASEDRKLTNEERLALEKATNALLVEQPFNDPIRFELGSLAQPFATLAACTDDLVRSWGLQTDPEHAAVNPPKPIGSPSEWFDDKKLAERVWSKRENAIIYFRMIVSDKGAPESCVIQDSSQTTELRDLSCRALMGKARFTPGTNAAGQSVRSVYRGAVRYFTSRN,not soluble
4,MMSTSIPDVAVHDSPAIAAPLRWVGMDGIVVPVQLTTADGGQHVIGRARAQIDLPAMGVKGIHMSRLYRLLDTYAVEPLTPVGICGLLSAMVNSHADCASTAARVDWYFDWLRRVPALVSNDLSGWRGYPVWLRAEYSAGHVQFWLCVEVAYSSTCPCSAALARQMLADAFLQEHVEVSALSPETVADWLRSNGSYATPHSQRSLARIEVALTEQAVELGLPALVDCAERILSTPVQAAVRRVDEQAFARLNGANLMYVEDATRRLQHGLAIHYSAFRVHVRHLESLHPNDAVASTADE,not soluble
5,MSLTEFPGIVKEYEAITRYCGFNSIEAGKTMGLSPYGEPNPEIPPMFVNGFGNRNLFKPNYPNGAYVIEDRYKIIRDDYISHNGEVGTGEYTQVQKDLAYAIQKESEDQMCALIQKAHEMTGEKNIVICGGYGLNCVANYKFKQRFPNLNIYVEPISHDGGTSMGGAYHVYYNDYVKTGKESRKVEPPKTIYYGPQYDPDTYLNYIHEYPSAKVTDASYDSVARLIREGNIVTIFQGRSEAGPRALGNRSILFDPTIKDGKDIVNSVKHREFFRPFACSILADKVHDWFDLAGMDDSPSMMYAVDALPGVAEKIPSVIHVDNTCRIQTVTKEQNEHYYNLISAFEKLSNTPILFNTSFNLGGDPLVEDIDDALDTLSTSDINYMYLPEIQKLVELKTREMQDTRQQPINEGHHHHHH,soluble
6,AIAATSELSCEVSEENCERREAFWAEWKDLTLSTRPEEGCSLHEEDTQRHETYHQQGQCQVLVQRSPWLMMRMGILGRGLQEYQLPYQRVLPLPIFTPAKMGATKEEREDTPIQLQELLALETALGGQCVDRQEVAEITKQLPPVVPVSKPGALRRSLSRSMSQEAQRG,soluble
7,AKYYNEPCHTFNEYLLIPGLSTVDCIPSNVNLSTPLVKFQKGQQSEINLKIPLVSAIMQSVSGEKMAIALAREGGISFIFGSQSIESQAAMVHAVKNFKDSQKRYLVGAGINTRDFRERVPALVEAGADVLCIDSSDGFSEWQKITIGWIRDKYGDKVKVGAGNIVDGEGFRYLADAGADFIKIGIGGGSICITREQKGIGRGQATAVIDVVAERNKYFEETGIYIPVCSDGGIVYDYHMTLALAMGADFIMLGRYFARFEESPTRKVTINGSVMKEYWGEGSSRARNWQRYDLGGKQKLSFEEGVDSYVPYAGKLKDNVEASLNKVKSTMCNCGALTIPQLQSKAKITLVSSVSIVEGGAHDVIVKDRINDYHPK,soluble
8,MAETNKGIEEEVASAFVNHYYHLFDNDRSSLSSLYNPTSLLTFEGQTIYGVDNISNKLKQLPFDQCHHLISTVDSQPSSMAGGCGGILVFVSGSIQLHGEDHPLRFSQVYLLSICNRFEGFIWLKQS,not soluble
9,MGSDKIHHHHHHMMKIPKKIHQIYTKGIHDLPEEILVSVGKLKDLNPGWEYFFYDEKSIIGYIHKHYGKEMLNIYLSINPKYGVAKADLFRYLLIYIEGGVYLDIKSSCSIPLDQVIKDDCEILLCSWDNKECGCDRNMGIHKELGFLKCGEYQQWNIISASGSPYIKSAIDEVIHRLKTYKPWIYGVGMKGVLNTTGPVPFSVGIERINKTEFFHHEENYRNIGLKYRNVTEETIRKLNKNHYSKLKDSIVTLEGKDKLYYKLWLLFFYPLQRLKKNIINESKFVIRKMKRISRKTSQ,not soluble
10,MLTKQPIAKKLNVSADVVWKVVRNIGRLDVWFPIIETCRVEGEGAGALRYMTVAGGGEIRDTIEEIDDVTMRLTYLRPLSPFPVTYYKGTVEVFKSYDGLAIVVWTIDFESEPEDAASVAELVRSAISDGIDGMERDLRGALEHHHHHH,soluble
11,MGSDKIHHHHHHMTKLAIMSDLHIDLNHFSTFETKTLINLLKKEKIDHLHIAGDISNHFTKDTLPFINNLKKHIKLSYNLGNHDMLDLTETEIQRLDFQTYRFDKKMLLAFHGWYDYSFSNNRDIKDVEKLKKTFWFDRRLKRPNNDVTIQASILKRLDEILAKVDSSNIIIAMHFVPHKQFTMTHPRFSPFNAFLGSQAYHDLFQKYHIKDVVFGHAHRSFGDVKIGETTYHSRPLGYIREWNLTIDFVNQNPNHNPNLTWNLSKRYNAVKHLDSFENYRKKYFEDELRNSMTIFDC,not soluble
12,GKKQEPYEQVTIDVEEQHQGSVMEALGIRKGEVRDMLPDGKGRVRLEYIIPSRGLIGFRGDFMTMTSGTGLLYSSFSHYDEIKGGEIGQRKNGVLISNATGKALGYALFGLQERGKLMIDANIEVYEGQI,not soluble
13,MSLTGGVISGLGKGTITSSIGHILKDSGIKVSAVKIDPYINYDAGTMNPYQHGEVFVLDDGGEVDLDLGNYERFMNINLSRDNNITTGKVYLEVIQKERHGDYLGKTVQIIPHITDEIKRRIREVARTSGADVVLIEVGGTVGDIESMPFLEALRQLKREEQNVVFAHVTLVPEIGPTMEQKTKPTQHSVKALREIGIQPDIIFARSKQKLTEETKSRISLFTDVPVEGIISVSDVENVYLLPQMMVNEGLITRLSKLLNMNIEYRDSWTSYAENIRHPRDRVKVAIVGKYVDLHDAYISHKEAFSHVTGNTGIAVDIMWIDSEKVKNDQSVLSEADAILIPGGFGYRGVEGKIAATRYAMENGVPFLGICLGFQVAVIAVARYVLGLDGANSTEFDEKTKYPVVDILPEQRGVKDMGGTMRLGSKKVVIKKGTLAHRIYGADVIYERHRHRYEVNPDYIDMIEKAGFKFSATDEEGIRMEILERPGDESFIATQYHSEFKSRPLDPSKVHLHLVEQALIFKHRRMGENHEGYATAASSQGQEGHHHHHH,soluble
14,MQCFNTIFRLFTDMDEDNEIGLPQKGINQIIKEVVPEMRIANESRDMINACCVEFVKHIAREAQRIASQDQRKTIYHEHVQKALQNLGFTPDYLEAADSVLDACKVEAEKKLRRKNSRLEKCGIPEEKLYEMQQELIQKARQQEIEQQLAHQQAQAAAVAAANAQMFGGPSEGSLAPTDDDYDN,soluble
15,MGSDKIHHHHHHMNYQQLFRNRLAVLATMHQKEKVIAPLLEQELGIKVIVPPDFNTDIFGTFTREVKRPGTQIAAARLKAEKVLELTGENLAIASEGSFAPHPLVPYIYSNREIIILLDKINDIEIIGEEFSTYTNFNHQAVESLDEAYTFAKKVGFPEHGLVVWFENSEKKCHEIIKGITQETALIEAINFGLEKSPNSKINLETDMRAIYNPTRMKNIEKATHNLLQKISSCCPQCHTPGFETTERIKGLPCELCHTPTTLTLRAIYQCKKCGFRQDKLFPNGIEFADPSQCVYCNP,not soluble
16,MWSTIFFVFSTFVLIVDSGSVGLCRTECIEQNSRKIVRVHLKDQLVMAGLCNNNTQQTGSIVTPYVCHRNIGLWTLDELDEEGTVKFETLCPTPEQYPLELRATCPRVDAQHDDTPNEMDIDDYPNSGDTPLSVV,not soluble
17,MSLEELPRFFTQNGRHALLVDGAPYTILAAQLHNSSAWPAVLPPALDQVVALHANTVEAPVYWEQFEPAPGRFDTTNVDALIAGARKRGLRVALLWFGSWKNGQMHYVPEWIKRDEATYPRMRDANGEPVDVLSPHVAANVQADARAFTALMQHLRKVDGDRHTVIVVQVENEPGAIGTVRDHGPAGEAAFAQPVPAGIAAALGKPAGSWQQLFGAEAAEAFNAHATAAYIEQVAAAGKRVYPLPLYVNTWLRYKGKRYPGMDYPSGGATVNVFALWRAATPSIDFIGTDIYTSDYGEYTKVIGQYAREGHHHHHH,soluble
18,MSLTSPLAYSYTHTGTEATTGYFSCEPPQDMTMEQALAWLAVHPMDDFMHRHLLRRLGEMSPEELAKLGPTLQASPVLEALFCELCALAPEGSPLRATLTEILEGLSTTSEASPAAIAERLGAYTPLPYIGWAALPDRELHQAWCRLFSDNIQNHRMLPHPEDNDLAPLYADEEPATRPEPPITAVHARLAAAPGTPWSRPPAHETAQKALEVLVENDIIAGVEMRHEASLSPIALLRRWRLDLGVRNGGLAYTLRGEATTYGRGLSLADARASYAMEMVERASSYANVGPEGILGLTRPQPLRKARHSELVAEGLAVLDPNAIPLEVPYRDQPIHWLTGHASEANGNAPTLVPAQMVYLFCNLDEVALFTSSSSTGLASGNTLAEAKVAALTEILERDAEATTPYDRARCFRPATDDPLLRSLLEDYAARGIQIQMQDMTTEWGIPCYTCFVMSSRGKLARGTGAGLDGRRAAISALTETPYPYPRGGASGPGLRGLPERKLEDLPSFTLESPERNLALLEETLASTGHHPVYVELTRADLGLPVVKALIPGLELTADFDDCTRISRRLYRNYLRMGYDEGHHHHHH,soluble
19,MGSDKIHHHHHHMLPKYEIIKRDIIEKIESGEFSTGEKVYSEGDLKRKYNVSNTTVVKALNDLVNEGYLIRRQGEGTFVRKNLKHRKVFFSEKLSMSNNEKQKSVEETITLVSEEFTDKEIAQILGDKSGSKALLKLTQIALTNDFPWKIQNRYLFADKLRDDSVKRLIEGASLSDELGLQGNMANLPMTMEVSTILLTKDSDELEPLRIIRKSFGEEDSFSLFNIKRLIRGNDGVPIEYSQSFILSDFYQIEIISE,not soluble
20,GAMIRSRQPLLDALGVDLPDELLSLALTHRSYAYENGGLPTNERLEFLGDAVLGLTITDALFHRHPDRSEGDLAKLRASVVNTQALADVARRLCAEGLGVHVLLGRGEANTGGADKSSILADGMESLLGAIYLQHGMEKAREVILRLFGPLLDAAPTLGAGLDWKTSLQELTAARGLGAPSYLVTSTGPDHDKEFTAVVVVMDSEYGSGVGRSKKEAEQKAAAAAWKALEVLDNAMPGKTSA,soluble
